Data from the supplement of paper PMC10567573.

B1: LOXL2 (parent)
chain: FSPDGPSRFRKAYKPEQPLVRLRG
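Further: lentivirally expressed fusions sorted by FACS into six bins by GFP to DsRed ratio, PSI derived from sequencing read proportions per bin multiplied by bin number.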

Variants of: B1
Assay: protein stability index of a GFP-peptide fusion (GPS, HEK-293T) (PSI 1-6); higher = more stable
Details: c terminus: a fixed tail appended
FSPDGPSRFRKAYKPEQMLVRLRG gave a protein stability index of 2. Variant FSPDGPSRFRKAYKPEQNLVRLRG has a protein stability index of 2.75. With FSPDGPSRFRKAYKPEQQLVRLRG the protein stability index was 2.17. FSPDGPSRFRKAYKPEQRLVRLRG gave a protein stability index of 1.86. FSPDGPSRFRKAYKPEQSLVRLRG gave a protein stability index of 1.8. For FSPDGPSRFRKAYKPEQTLVRLRG, the protein stability index was 1.42. Variant FSPDGPSRFRKAYKPEQVLVRLRG has a protein stability index of 2.06. FSPDGPSRFRKAYKPEQWLVRLRG showed a protein stability index of 2.44. FSPDGPSRFRKAYKPEQYLVRLRG showed a protein stability index of 1.65. FSPDGPSRFRKAYKPEQPAVRLRG showed a protein stability index of 2.01. In the case of FSPDGPSRFRKAYKPEQPDVRLRG, the protein stability index is reported as 2.46. Variant FSPDGPSRFRKAYKPEQPEVRLRG has a protein stability index of 2.34. In the case of FSPDGPSRFRKAYKPEQPGVRLRG, the protein stability index is reported as 2.08. FSPDGPSRFRKAYKPEQPHVRLRG gave a protein stability index of 1.45. FSPDGPSRFRKAYKPEQPIVRLRG gave a protein stability index of 2.36. With FSPDGPSRFRKAYKPEQPKVRLRG the protein stability index was 1.65. In the case of FSPDGPSRFRKAYKPEQPMVRLRG, the protein stability index is reported as 1.82. In the case of FSPDGPSRFRKAYKPEQPNVRLRG, the protein stability index is reported as 1.22. With FSPDGPSRFRKAYKPEQPPVRLRG the protein stability index was 1.23. For FSPDGPSRFRKAYKPEQPQVRLRG, the protein stability index was 2.56. Work on FSPDGPSRFRKAYKPEQPSVRLRG yielded a protein stability index of 2.29. FSPDGPSRFRKAYKPEQPTVRLRG showed a protein stability index of 1.89. Variant FSPDGPSRFRKAYKPEQPVVRLRG has a protein stability index of 1.41. FSPDGPSRFRKAYKPEQPWVRLRG gave a protein stability index of 2.04. In the case of FSPDGPSRFRKAYKPEQPYVRLRG, the protein stability index is reported as 2.69. Work on FSPDGPSRFRKAYKPEQPLARLRG yielded a protein stability index of 2.26. With FSPDGPSRFRKAYKPEQPLCRLRG the protein stability index was 1.85. FSPDGPSRFRKAYKPEQPLDRLRG showed a protein stability index of 2.34. In the case of FSPDGPSRFRKAYKPEQPLERLRG, the protein stability index is reported as 1.74. FSPDGPSRFRKAYKPEQPLFRLRG showed a protein stability index of 2.99. In the case of FSPDGPSRFRKAYKPEQPLGRLRG, the protein stability index is reported as 1.41. With FSPDGPSRFRKAYKPEQPLHRLRG the protein stability index was 1.63. FSPDGPSRFRKAYKPEQPLIRLRG gave a protein stability index of 2.62. For FSPDGPSRFRKAYKPEQPLKRLRG, the protein stability index was 1.37. With FSPDGPSRFRKAYKPEQPLLRLRG the protein stability index was 2. FSPDGPSRFRKAYKPEQPLMRLRG gave a protein stability index of 2.05. In the case of FSPDGPSRFRKAYKPEQPLNRLRG, the protein stability index is reported as 2.42. With FSPDGPSRFRKAYKPEQPLPRLRG the protein stability index was 1.92. In the case of FSPDGPSRFRKAYKPEQPLQRLRG, the protein stability index is reported as 1.4. In the case of FSPDGPSRFRKAYKPEQPLRRLRG, the protein stability index is reported as 2.51. In the case of FSPDGPSRFRKAYKPEQPLSRLRG, the protein stability index is reported as 1.34. For FSPDGPSRFRKAYKPEQPLTRLRG, the protein stability index was 1.92. FSPDGPSRFRKAYKPEQPLWRLRG gave a protein stability index of 3.13. In the case of FSPDGPSRFRKAYKPEQPLYRLRG, the protein stability index is reported as 2.17. In the case of FSPDGPSRFRKAYKPEQPLVALRG, the protein stability index is reported as 1.65. FSPDGPSRFRKAYKPEQPLVCLRG showed a protein stability index of 2.37. FSPDGPSRFRKAYKPEQPLVDLRG gave a protein stability index of 2. FSPDGPSRFRKAYKPEQPLVELRG gave a protein stability index of 1.99. FSPDGPSRFRKAYKPEQPLVFLRG gave a protein stability index of 2.12. In the case of FSPDGPSRFRKAYKPEQPLVGLRG, the protein stability index is reported as 1.67. FSPDGPSRFRKAYKPEQPLVHLRG gave a protein stability index of 2.25. For FSPDGPSRFRKAYKPEQPLVILRG, the protein stability index was 2.57. For FSPDGPSRFRKAYKPEQPLVKLRG, the protein stability index was 1.25. FSPDGPSRFRKAYKPEQPLVLLRG gave a protein stability index of 1.26. Variant FSPDGPSRFRKAYKPEQPLVMLRG has a protein stability index of 1.59. Variant FSPDGPSRFRKAYKPEQPLVNLRG has a protein stability index of 1.61. Variant FSPDGPSRFRKAYKPEQPLVPLRG has a protein stability index of 1.77. Work on FSPDGPSRFRKAYKPEQPLVQLRG yielded a protein stability index of 1.8. With FSPDGPSRFRKAYKPEQPLVSLRG the protein stability index was 1.73. FSPDGPSRFRKAYKPEQPLVTLRG gave a protein stability index of 1.53. With FSPDGPSRFRKAYKPEQPLVVLRG the protein stability index was 1.65. FSPDGPSRFRKAYKPEQPLVWLRG gave a protein stability index of 1.92. In the case of FSPDGPSRFRKAYKPEQPLVYLRG, the protein stability index is reported as 1.86. Work on FSPDGPSRFRKAYKPEQPLVRARG yielded a protein stability index of 2.32. In the case of FSPDGPSRFRKAYKPEQPLVRCRG, the protein stability index is reported as 1.95. For FSPDGPSRFRKAYKPEQPLVRDRG, the protein stability index was 1.93. In the case of FSPDGPSRFRKAYKPEQPLVRERG, the protein stability index is reported as 1.68. FSPDGPSRFRKAYKPEQPLVRFRG gave a protein stability index of 1.21. Variant FSPDGPSRFRKAYKPEQPLVRGRG has a protein stability index of 1.9. For FSPDGPSRFRKAYKPEQPLVRHRG, the protein stability index was 1.52. For FSPDGPSRFRKAYKPEQPLVRIRG, the protein stability index was 2.42. With FSPDGPSRFRKAYKPEQPLVRKRG the protein stability index was 1.58. Variant FSPDGPSRFRKAYKPEQPLVRMRG has a protein stability index of 2.04. For FSPDGPSRFRKAYKPEQPLVRNRG, the protein stability index was 2.36. FSPDGPSRFRKAYKPEQPLVRPRG showed a protein stability index of 2.05. For FSPDGPSRFRKAYKPEQPLVRQRG, the protein stability index was 1.99. With FSPDGPSRFRKAYKPEQPLVRRRG the protein stability index was 2.35. FSPDGPSRFRKAYKPEQPLVRSRG showed a protein stability index of 1.74. FSPDGPSRFRKAYKPEQPLVRTRG gave a protein stability index of 2.26. With FSPDGPSRFRKAYKPEQPLVRVRG the protein stability index was 1.54. FSPDGPSRFRKAYKPEQPLVRWRG showed a protein stability index of 1.47. With FSPDGPSRFRKAYKPEQPLVRYRG the protein stability index was 1.75. With FSPDGPSRFRKAYKPEQPLVRLAG the protein stability index was 1.89. Work on FSPDGPSRFRKAYKPEQPLVRLCG yielded a protein stability index of 2.39. FSPDGPSRFRKAYKPEQPLVRLDG gave a protein stability index of 2.78. With FSPDGPSRFRKAYKPEQPLVRLEG the protein stability index was 2.46. FSPDGPSRFRKAYKPEQPLVRLFG gave a protein stability index of 1.97. Work on FSPDGPSRFRKAYKPEQPLVRLGG yielded a protein stability index of 1.96. With FSPDGPSRFRKAYKPEQPLVRLHG the protein stability index was 1.85. For FSPDGPSRFRKAYKPEQPLVRLIG, the protein stability index was 2.31. With FSPDGPSRFRKAYKPEQPLVRLKG the protein stability index was 1.53. Variant FSPDGPSRFRKAYKPEQPLVRLLG has a protein stability index of 1.37. For FSPDGPSRFRKAYKPEQPLVRLMG, the protein stability index was 2.33. In the case of FSPDGPSRFRKAYKPEQPLVRLNG, the protein stability index is reported as 1.29.
